Results taken from PMC4004102.

Biological target: AgrC-I (wild type) dimer embedded in nanodiscs (Staphylococcus aureus)
Experiment: fluorescence polarisation

AIP-I (native autoinducing peptide of agr group 1)
Kd: 63 nM

AIP-II (native autoinducing peptide of agr group 2)
Kd: 160 nM
